Settings in all cases: pH 8; 30 °C; part of the chain shown
Substrate in one series: p-NP-C12
Substrate in another series: p-NP-C2
Substrate in another series: p-NP-C4
Substrate in the next series: p-NP-C6
Substrate in a further series: p-NP-C8

B1: unnamed (protein)
chain: MNFPRASRLMQAAVLGGLMAVSAAATAQTNPYARGPNPTAASLEASAGPFTVRSFTVSRPSGYGAGTVYYPTNAGGTVGAIAIVPGYTARQSSIKWWGPRLASHGFVVITIDTNSTLDQPSSRSSQQMAALRQVASLNGTSSSPIYGKVDTARMGVMGWSMGGGGSLISAANNPSLKAAAPQAPWDSSTNFSSVTVPTLIFACENDSIAPVNSSALPIYDSMSRNAKQFLEINGGSHSCANSGNSNQALIGKKGVAWMKRFMDNDTRYSTFACENPNSTRVSDFRTANCS
In the case of B1, the Km in the series with p-NP-C12 came to 2.28 mM; with p-NP-C2, 431 µM; with p-NP-C4, 315 µM; with p-NP-C6, 52.8 µM; with p-NP-C8, 48.1 µM. The kcat with p-NP-C12 worked out at 1530 s⁻¹; with p-NP-C2, 1590 s⁻¹; with p-NP-C4, 1350 s⁻¹; with p-NP-C6, 1350 s⁻¹; with p-NP-C8, 519 s⁻¹. The kcat/Km with p-NP-C12 amounted to 671000 s⁻¹ M⁻¹; with p-NP-C2, 3.69e+06 s⁻¹ M⁻¹; in the series with p-NP-C4, 4.3e+06 s⁻¹ M⁻¹; with p-NP-C6, 2.55e+07 s⁻¹ M⁻¹; with p-NP-C8 it was 1.08e+07 s⁻¹ M⁻¹.
